Source: patent US20040176301A1 (CYCLACEL, published 2004)
Read-outs that look alike come from different tables or passages of the source. Square brackets hold non-standard residues; d marks the D form. Ends that are not written are not given here. * marks the point of attachment. Biotin = O=C1N[C@H]2[C@H](CS[C@H]2CCCCC(=O)*)N1; hSer = N[C@@H](CCO)C(=O)O; Nle = CCCC[C@H](N)C(=O)O; Abu = CC[C@H](N)C(=O)O; Ahx = NCCCCCC(=O)O

Tests used:
CDK2/Cyclin E complex [1] = target: T1, CDK2/Cyclin E complex (UniProt P24941 1-298; P24864 1-410); experiment: cell-based or functional assay
CDK4/Cyclin D1 complex [2] = target: T2, CDK4/Cyclin D1 complex (UniProt P11802 1-303; P24385 1-295); experiment: cell-based or functional assay
T2 sequence (P11802 other isoform, or with tags, fused parts or gaps, chain 1 of 2): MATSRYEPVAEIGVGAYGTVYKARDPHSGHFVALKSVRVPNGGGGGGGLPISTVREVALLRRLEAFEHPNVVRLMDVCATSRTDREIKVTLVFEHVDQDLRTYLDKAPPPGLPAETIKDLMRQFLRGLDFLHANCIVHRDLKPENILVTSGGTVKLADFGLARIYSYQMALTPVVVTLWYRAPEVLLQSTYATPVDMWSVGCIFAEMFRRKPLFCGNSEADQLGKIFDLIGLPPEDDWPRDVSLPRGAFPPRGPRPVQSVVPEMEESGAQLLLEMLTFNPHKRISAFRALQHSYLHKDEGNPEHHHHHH
T2 sequence (P24385 whole entry, chain 2 of 2): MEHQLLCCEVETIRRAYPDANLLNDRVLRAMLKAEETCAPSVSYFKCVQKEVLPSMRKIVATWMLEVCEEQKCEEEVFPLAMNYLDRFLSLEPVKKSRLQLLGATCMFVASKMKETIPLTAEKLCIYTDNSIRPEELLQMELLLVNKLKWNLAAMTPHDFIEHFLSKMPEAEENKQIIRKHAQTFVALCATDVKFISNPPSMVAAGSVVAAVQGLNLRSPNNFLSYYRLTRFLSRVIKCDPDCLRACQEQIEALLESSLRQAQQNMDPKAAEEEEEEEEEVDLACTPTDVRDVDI

CDK1/Cyclin B complex [3] = target: T3, CDK1/Cyclin B complex (UniProt P06493 1-297; P14635 1-433); experiment: cell-based or functional assay
T3 sequence (P06493 other isoform, or with tags, fused parts or gaps, chain 1 of 2): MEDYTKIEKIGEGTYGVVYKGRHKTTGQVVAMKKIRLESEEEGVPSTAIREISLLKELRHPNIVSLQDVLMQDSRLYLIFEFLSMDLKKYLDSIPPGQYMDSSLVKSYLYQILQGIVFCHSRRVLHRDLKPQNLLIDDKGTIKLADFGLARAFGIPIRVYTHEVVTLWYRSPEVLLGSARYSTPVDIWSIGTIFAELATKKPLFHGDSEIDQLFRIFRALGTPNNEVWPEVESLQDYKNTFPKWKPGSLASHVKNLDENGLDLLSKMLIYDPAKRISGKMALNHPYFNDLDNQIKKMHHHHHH
T3 sequence (P14635 other isoform, or with tags, fused parts or gaps, chain 2 of 2): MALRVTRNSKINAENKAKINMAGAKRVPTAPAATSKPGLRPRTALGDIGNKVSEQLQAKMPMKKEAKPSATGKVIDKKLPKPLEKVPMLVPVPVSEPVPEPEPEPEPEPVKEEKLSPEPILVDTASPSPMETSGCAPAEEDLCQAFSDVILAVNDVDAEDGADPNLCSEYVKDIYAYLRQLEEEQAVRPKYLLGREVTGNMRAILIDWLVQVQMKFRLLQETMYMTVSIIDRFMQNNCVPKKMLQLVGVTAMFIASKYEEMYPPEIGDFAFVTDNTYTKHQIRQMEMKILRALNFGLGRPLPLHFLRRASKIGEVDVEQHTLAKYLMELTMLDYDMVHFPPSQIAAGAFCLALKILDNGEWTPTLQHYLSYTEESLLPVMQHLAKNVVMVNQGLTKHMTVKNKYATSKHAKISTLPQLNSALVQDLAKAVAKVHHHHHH

CDK1/Cyclin B complex [4] = target: T3, CDK1/Cyclin B complex; experiment: pull-down with immobilised peptide
cyclin B = cyclin B (UniProt P14635 1-433); experiment: pull-down with immobilised peptide
cyclin B, sequence (P14635 whole entry): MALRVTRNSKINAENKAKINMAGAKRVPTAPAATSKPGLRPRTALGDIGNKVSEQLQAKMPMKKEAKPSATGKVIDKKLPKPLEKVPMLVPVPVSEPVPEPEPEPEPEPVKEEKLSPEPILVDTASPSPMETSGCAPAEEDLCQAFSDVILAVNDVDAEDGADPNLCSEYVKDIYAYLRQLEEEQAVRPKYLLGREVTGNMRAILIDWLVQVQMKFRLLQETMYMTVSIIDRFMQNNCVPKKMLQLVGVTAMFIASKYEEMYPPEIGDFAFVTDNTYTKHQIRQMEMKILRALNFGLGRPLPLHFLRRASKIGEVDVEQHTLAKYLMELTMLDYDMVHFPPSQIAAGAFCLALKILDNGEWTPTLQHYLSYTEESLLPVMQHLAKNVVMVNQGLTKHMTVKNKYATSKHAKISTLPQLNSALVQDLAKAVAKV

CDK2/Cyclin E complex [5] = target: T1, CDK2/Cyclin E complex; experiment: cell-based or functional assay; remark: listed apart in the source
CDK4/Cyclin D1 complex [6] = target: T2, CDK4/Cyclin D1 complex; experiment: cell-based or functional assay; remark: listed apart in the source
Cyclin D1 [7] = target: T4, Cyclin D1 (UniProt P24385 1-295, limits assumed); experiment: competitive ELISA: cyclin D1 binding to immobilised biotinyl-Ahx-p21(149-159)
T4 sequence (P24385 whole entry): as the sequence (P24385 whole entry, chain 2 of 2) above
Source text: The amount of bound Cyclin D1/Cyclin A was immunodetected and quantified by Turbo-ELISA reagent (PIERCE).

CDK2/cyclin A [8] = target: T5, CDK2/cyclin A (UniProt P24941 1-298; P20248 1-432); experiment: cell-based or functional assay
CDK2/cyclin A [9] = target: T5, CDK2/cyclin A; experiment: cell-based or functional assay; remark: listed apart in the source
[10] = target: recombinant CDK2/cyclin A (UniProt P20248 1-432; P24941 1-298); experiment: cell-based or functional assay
Cyclin D1 [11] = target: T4, Cyclin D1; experiment: pull-down, biotinylated peptide on streptavidin-agarose; SDS-PAGE, Western blot
Source text: (§1) The biotinylated peptide was pre-immobilised on streptavidin-agarose beads.

CDK2 = CDK2 (UniProt P24941 1-298); experiment: pull-down with biotinylated peptide on streptavidin-agarose beads; SDS-PAGE, Western blot
Source text: as §1

CDK4 = target: T6, CDK4 (UniProt P11802 1-303); experiment: as above
T6 construct: also called CDK4-6×His
T6 sequence (P11802 other isoform, or with tags, fused parts or gaps limits assumed): as the sequence (P11802 other isoform, or with tags, fused parts or gaps, chain 1 of 2) above
Source text: as §1

Cyclin A = Cyclin A (UniProt P20248 173-432, limits assumed); experiment: competitive cyclin A binding ELISA, competitor: immobilised p21 peptide

B1: p21 (149-160) DFYHSKRRLIFS-NH2 (peptide)
peptide: DFYHSKRRLIFS-NH2
% Inhibition, cyclin E/CDK2 kinase (CDK2/Cyclin E complex [1]): 80% | IC50, cyclin E/CDK2 kinase, GST-pRb (CDK2/Cyclin E complex [1]): 4.5 µM | % Inhibition, cyclin D1/CDK4 kinase (CDK4/Cyclin D1 complex [2]): 70% | IC50, cyclin D1/CDK4 kinase, GST-pRb (CDK4/Cyclin D1 complex [2]): 20 µM | IC50, CDK1-Cyclin B phosphorylation of GST-Rb (CDK1/Cyclin B complex [3]): 200 µM | IC50, CDK1-Cyclin B phosphorylation of Histone 1 (CDK1/Cyclin B complex [3]): > 200 µM | binding result (CDK1/Cyclin B complex [4]): no binding | binding result (cyclin B): no binding

B2: p21 (149-160)S153A DFYHAKRRLIFS-NH2 (peptide)
peptide: DFYHAKRRLIFS-NH2
IC50, CDK1-Cyclin B phosphorylation of GST-Rb (CDK1/Cyclin B complex [3]): > 200 µM | IC50, CDK1-Cyclin B phosphorylation of Histone 1 (CDK1/Cyclin B complex [3]): 200 µM

B3: p21 (149-159) DFYHSKRRLIF-NH2 (peptide)
peptide: DFYHSKRRLIF-NH2
% Inhibition, cyclin E/CDK2 kinase (CDK2/Cyclin E complex [1]): 75% | IC50, cyclin E/CDK2 kinase, GST-pRb (CDK2/Cyclin E complex [1]): 2 µM | % Inhibition, cyclin D1/CDK4 kinase (CDK4/Cyclin D1 complex [2]): 70% | IC50, cyclin D1/CDK4 kinase, GST-pRb (CDK4/Cyclin D1 complex [2]): 13 µM | IC50, CDK1-Cyclin B phosphorylation of GST-Rb (CDK1/Cyclin B complex [3]): > 200 µM

B4: P21 C-terminus-LDL hybrid HSKRRLDL-NH2 (peptide)
peptide: HSKRRLDL-NH2
% Inhibition, cyclin E/CDK2 kinase (CDK2/Cyclin E complex [5]): 74% | % Inhibition, cyclin D1/CDK4 kinase (CDK4/Cyclin D1 complex [6]): 24% | IC50 (Cyclin D1 [7]): > 200 µM

B5: E2F1 peptide PVKRRLDL-NH2 (peptide)
peptide: PVKRRLDL-NH2
notes: Derived from E2F1
% Inhibition, cyclin E/CDK2 kinase (CDK2/Cyclin E complex [5]): 74% | IC50, cyclin E/CDK2 kinase (CDK2/Cyclin E complex [5]): 2.1 µM | % Inhibition, cyclin D1/CDK4 kinase (CDK4/Cyclin D1 complex [6]): 58% | IC50, cyclin D1/CDK4 kinase (CDK4/Cyclin D1 complex [6]): 99 µM | IC50 (Cyclin D1 [7]): > 100 µM

B6: H-His-Ala-Ala-Arg-Arg-Leu-Ile-Phe-NH2 (peptide)
peptide: H-HAARRLIF-NH2
Relative activity, Kinase Inhibition (CDK2/cyclin A kinase assay, pRb substrate, [ATP] = 100 µM) (CDK2/cyclin A [8]): < 0.1 relative to H-His-Ala-Lys-Arg-Arg-Leu-Ile-Phe-NH2 (=1)

B7: H-His-Ala-Nle-Arg-Arg-Leu-Ile-Phe-NH2 (peptide)
peptide: H-HA[Nle]RRLIF-NH2
SMILES: CCCC[C@H](NC(=O)[C@H](C)NC(=O)[C@@H](N)Cc1c[nH]cn1)C(=O)N[C@@H](CCCNC(=N)N)C(=O)N[C@@H](CCCNC(=N)N)C(=O)N[C@@H](CC(C)C)C(=O)N[C@H](C(=O)N[C@@H](Cc1ccccc1)C(N)=O)[C@@H](C)CC
Relative activity, Kinase Inhibition (CDK2/cyclin A kinase assay, pRb substrate, [ATP] = 100 µM) (CDK2/cyclin A [8]): 0.3 relative to H-His-Ala-Lys-Arg-Arg-Leu-Ile-Phe-NH2 (=1)

B8: H-His-Ala-Abu-Arg-Arg-Leu-Ile-Phe-NH2 (peptide)
peptide: H-HA[Abu]RRLIF-NH2
SMILES: CC[C@H](NC(=O)[C@H](C)NC(=O)[C@@H](N)Cc1c[nH]cn1)C(=O)N[C@@H](CCCNC(=N)N)C(=O)N[C@@H](CCCNC(=N)N)C(=O)N[C@@H](CC(C)C)C(=O)N[C@H](C(=O)N[C@@H](Cc1ccccc1)C(N)=O)[C@@H](C)CC
Relative activity, Kinase Inhibition (CDK2/cyclin A kinase assay, pRb substrate, [ATP] = 100 µM) (CDK2/cyclin A [8]): 0.8 relative to H-His-Ala-Lys-Arg-Arg-Leu-Ile-Phe-NH2 (=1)

B9: H-His-Ala-Leu-Arg-Arg-Leu-Ile-Phe-NH2 (peptide)
peptide: H-HALRRLIF-NH2
Relative activity, Kinase Inhibition (CDK2/cyclin A kinase assay, pRb substrate, [ATP] = 100 µM) (CDK2/cyclin A [8]): 0.1 relative to H-His-Ala-Lys-Arg-Arg-Leu-Ile-Phe-NH2 (=1)

B10: H-His-Ala-Arg-Arg-Arg-Leu-Ile-Phe-NH2 (peptide)
peptide: H-HARRRLIF-NH2
Relative activity, Kinase Inhibition (CDK2/cyclin A kinase assay, pRb substrate, [ATP] = 100 µM) (CDK2/cyclin A [8]): 5.7 relative to H-His-Ala-Lys-Arg-Arg-Leu-Ile-Phe-NH2 (=1)

B11: H-His-Ala-Lys-Ala-Arg-Leu-Ile-Phe-NH2 (peptide)
peptide: H-HAKARLIF-NH2
Relative activity, Kinase Inhibition (CDK2/cyclin A kinase assay, pRb substrate, [ATP] = 100 µM) (CDK2/cyclin A [9]): < 0.1 relative to H-His-Ala-Lys-Arg-Arg-Leu-Ile-Phe-NH2 (=1)

B12: H-His-Ala-Lys-Hse-Arg-Leu-Ile-Phe-NH2 (peptide)
peptide: H-HAK[hSer]RLIF-NH2
SMILES: CC[C@H](C)[C@H](NC(=O)[C@H](CC(C)C)NC(=O)[C@H](CCCNC(=N)N)NC(=O)[C@H](CCO)NC(=O)[C@H](CCCCN)NC(=O)[C@H](C)NC(=O)[C@@H](N)Cc1c[nH]cn1)C(=O)N[C@@H](Cc1ccccc1)C(N)=O
Relative activity, Kinase Inhibition (CDK2/cyclin A kinase assay, pRb substrate, [ATP] = 100 µM) (CDK2/cyclin A [9]): < 0.1 relative to H-His-Ala-Lys-Arg-Arg-Leu-Ile-Phe-NH2 (=1)

B13: H-His-Ala-Lys-Nle-Arg-Leu-Ile-Phe-NH2 (peptide)
peptide: H-HAK[Nle]RLIF-NH2
SMILES: CCCC[C@H](NC(=O)[C@H](CCCCN)NC(=O)[C@H](C)NC(=O)[C@@H](N)Cc1c[nH]cn1)C(=O)N[C@@H](CCCNC(=N)N)C(=O)N[C@@H](CC(C)C)C(=O)N[C@H](C(=O)N[C@@H](Cc1ccccc1)C(N)=O)[C@@H](C)CC
Relative activity, Kinase Inhibition (CDK2/cyclin A kinase assay, pRb substrate, [ATP] = 100 µM) (CDK2/cyclin A [9]): < 0.1 relative to H-His-Ala-Lys-Arg-Arg-Leu-Ile-Phe-NH2 (=1)

B14: H-His-Ala-Lys-Gln-Arg-Leu-Ile-Phe-NH2 (peptide)
peptide: H-HAKQRLIF-NH2
Relative activity, Kinase Inhibition (CDK2/cyclin A kinase assay, pRb substrate, [ATP] = 100 µM) (CDK2/cyclin A [9]): < 0.1 relative to H-His-Ala-Lys-Arg-Arg-Leu-Ile-Phe-NH2 (=1)

B15: H-His-Ala-Lys-Lys-Arg-Leu-Ile-Phe-NH2 (peptide)
peptide: H-HAKKRLIF-NH2
Relative activity, Kinase Inhibition (CDK2/cyclin A kinase assay, pRb substrate, [ATP] = 100 µM) (CDK2/cyclin A [9]): 0.8 relative to H-His-Ala-Lys-Arg-Arg-Leu-Ile-Phe-NH2 (=1)

B16: Ac-Arg-Arg-Leu-Asn-Phe-NH2 (peptide)
peptide: Ac-RRLNF-NH2
Kinase IC50 (µM) CyclinA/CDK2 [10]: 37.2 µM

B17: biotinyl-Ahx-Asp-Phe-Tyr-His-Ser-Lys-Arg-Arg-Leu-Ile-Phe-NH (peptide)
peptide: Biotin-[Ahx]DFYHSKRRLIF-NH2
SMILES: CC[C@H](C)[C@H](NC(=O)[C@H](CC(C)C)NC(=O)[C@H](CCCNC(=N)N)NC(=O)[C@H](CCCNC(=N)N)NC(=O)[C@H](CCCCN)NC(=O)[C@H](CO)NC(=O)[C@H](Cc1c[nH]cn1)NC(=O)[C@H](Cc1ccc(O)cc1)NC(=O)[C@H](Cc1ccccc1)NC(=O)[C@H](CC(=O)O)NC(=O)CCCCCNC(=O)CCCC[C@@H]1SC[C@@H]2NC(=O)N[C@@H]21)C(=O)N[C@@H](Cc1ccccc1)C(N)=O
notes: immobilised on streptavidin
binding result (Cyclin D1 [11]): binds | binding result (CDK2): no binding | binding result (CDK4): no binding

B18: GST-pRb(772-928) (other, UniProt P06400 772-928, looked up)
chain: ASTRPPTLSPIPHIPRSPYKFPSSPLRIPGGNIYISPLKSPYKISEGLPTPTKMTPRSRILVSIGESFGTSEKFQKINQMVCNSDRVLKRSAEGSNPPKPLKKLRFDIEGSDEADGSKHLPGESKFQQKLAEMTSTRTRMQKQKMNDSMDTSNKEEK
notes: range 772-928; Limits of the pRb part are printed inconsistently; also called GST-Rb; GST-Rb(772-928); not shown: glutathione S-transferase (GST) fusion partner
IC50 (Cyclin A): 9 µM
